Measured values published in paper PMC11703243.

Assays:
[1] = target: Alexa Fluor 488-labeled BAX^WT (human) (UniProt Q07812); assay: SEC
[2] = target: BAX, recombinant human, wild type (human) (UniProt Q07812); assay: SEC

## Alexa Fluor 488-labeled BAX^WT (from UniProt Q07812 1-192) (natural protein)
[1]
  stoichiometry N: 2

## BAX, recombinant human, wild type (from UniProt Q07812 1-192) (natural protein)
[2]
  stoichiometry N: 2
